Test results as given in patent US20120014941A1 (Hoffmann-La Roche, published 2012).
Like-named read-outs stand apart in the source and are kept apart here.

How the values were obtained:
[1] = biological target: Cynomologus Monkey Bv8 (Genentech; PUR21590) (cynomolgus monkey); assay: SPR, BIAcore-3000, Bv8 coupled to CM5 chip, IgG (FIG. 21)
[2] = biological target: T1, recombinant human Bv8 (PeproTech) (human, UniProt Q9HC23-2 28-108, biotinylated (Sulfo-NHS-LC-biotin) in the two competition ELISAs with coated antibody); assay: as above
T1 construct: Bought protein; also called HuBv8; prokineticin-2
T1 sequence (looked up): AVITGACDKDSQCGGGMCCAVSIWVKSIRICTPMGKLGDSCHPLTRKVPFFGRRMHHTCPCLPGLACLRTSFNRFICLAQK
Text: (§1) For binding affinity determinations of anti-Bv8 antibodies (Fab or IgG), Surface Plasmon Resonance (SRP) measurement with a BIAcore™-3000 instrument was used. Briefly, CM5 biosensor chip was activated with EDC and NHS reagents according to the supplier's instructions, and human Bv8 (PeproTech) or Cynomologus Monkey (Genentech; PUR21590) was coupled to achieve approximately 150 response units (RU), then following by blocking un-reacted groups with 1M ethanolamine. For kinetics measurements, two-fold serial dilutions of anti-Bv8 Fabs (0.19 nM to 25 nM) or IgGs (0.019 nM to 10 nM) were injected in HBS-P buffer (0.01M HEPES pH 7.4, 0.15M NaCl, 0.005% surfactant P20) at 25° C. with a flow rate of 30 μl/min. Association rates (kₒₙ) and dissociation rates (koff) were calculated using a simple one-to-one Langmuir binding model (BIAcore Evaluation Software version 3.2). The equilibrium dissociation constant (Kd) was calculated as the ratio koff/kₒₙ.

[3] = biological target: Cynomologus Monkey Bv8 (Genentech; PUR21590) (cynomolgus monkey); assay: SPR (BIAcore 3000, 25 C): cynomolgus monkey Bv8 coupled to CM5 chip, IgG injected; 1:1 Langmuir fit
[4] = biological target: Cynomologus Monkey Bv8 (Genentech; PUR21590) (cynomolgus monkey); assay: as above; remark: listed apart in the source
[5] = biological target: T1, recombinant human Bv8 (PeproTech); assay: SPR (BIAcore 3000, 25 C): human Bv8 coupled to CM5 chip, IgG injected; 1:1 Langmuir fit
Text: as §1

[6] = biological target: T1, recombinant human Bv8 (PeproTech); assay: as above; remark: listed apart in the source
Text: as §1

[7] = biological target: Cynomologus Monkey Bv8 (Genentech; PUR21590) (cynomolgus monkey); assay: SPR (BIAcore 3000, 25 C): cynomolgus monkey Bv8 coupled to CM5 chip, IgG injected; 1:1 Langmuir fit; off-rate followed for 30 min
[8] = biological target: T1, recombinant human Bv8 (PeproTech); assay: SPR (BIAcore 3000, 25 C): human Bv8 coupled to CM5 chip, IgG injected; 1:1 Langmuir fit; off-rate followed for 30 min
Text: as §1

[9] = biological target: T1, recombinant human Bv8 (PeproTech); assay: as above; remark: listed apart in the source
Text: as §1

[10] = biological target: T1, recombinant human Bv8 (PeproTech); assay: competitive ELISA: antibody in serial dilution mixed with biotinylated human Bv8 (57 pM) and put on plate coated with mouse 2G9 IgG1 (m5, the competitor); streptavidin-HRP, OD 450/620; four-parameter fit
Protocol: Maxisorp 384 well plates were coated with 1 μg/ml parent mouse 2G9 IgG1 antibody at 25 μl/well in 50 mM sodium carbonate buffer, pH 9.6, at 4° C. overnight. Plates were washed with phosphate buffered saline (PBS) containing 0.05% polysorbate, pH 7.4 and blocked with PBS containing 0.5% BSA, 10 ppm Proclin, pH 7.4, at 80 μL1/well. After one-hour incubation at room temperature, plates were washed. A mixture of serially diluted humanized 2G9 antibodies (0.11 pM-180 nM) in PBS containing 0.5% BSA, 0.05% polysorbate 20, pH 7.4 and biotinylated human Bv8 (final concentration 0.5 ng/ml or 57 pM) were added at 25 μL1/well. After two hour incubation, plates were washed and horseradish peroxidase conjugated streptavidin (GE Healthcare) was added. After a final 30 minute incubation, plates were washed and the substrate 3,3′,5,5′-tetramethyl benzidine (Kirkegaard & Perry Laboratories) was added. The reaction was stopped by adding 1 M phosphoric acid and absorbance was read at 450 nm on a Multiskan Ascent reader (Thermo Scientific, Hudson, N.H.). For data analysis, the titration curves were fitted using a four-parameter nonlinear regression curve-fitting program and the IC₅₀ concentrations were determined (KaleidaGraph, Synergy Software, Reading, Pa.).

[11] = biological target: T1, recombinant human Bv8 (PeproTech); assay: phage competition ELISA, Fab displayed on phage
Protocol: (§2) MAXISORP™ microtiter plates were coated with recombinant human Bv8 (PeproTech) at 2 μg/ml in PBS overnight and then blocked with PBST buffer (0.5% BSA and 0.05% Tween 20 in PBS) for an hour at room temperature (RT). Phage from culture supernatants were incubated with serially diluted human Bv8 in PBST buffer in a tissue-culture microtiter plate for an hour at RT, after which 80 μl of the mixture was transferred to the target-coated wells for 15 minutes to capture unbound phage. The plate was washed with PBT buffer (0.05% Tween 20 in PBS), and HRP-conjugated anti-M13 (Amersham Pharmacia Biotech) was added (1:5000 in PBST buffer) for 40 minutes. The plate was washed with PBT buffer and developed by adding tetramethylbenzidine substrate (Kirkegaard and Perry Laboratories, Gaithersburg, Md.). The absorbance at 450 nm was plotted as a function of target concentration in solution to determine phage IC₅₀.

[12] = biological target: T1, recombinant human Bv8 (PeproTech); assay: phage competition ELISA: Fab-displaying phage preincubated with serially diluted soluble human Bv8 (the concentration on the axis), unbound phage captured on plate-coated human Bv8, anti-M13-HRP; bound phage in %
Protocol: as §2

[13] = biological target: T1, recombinant human Bv8 (PeproTech); assay: competition ELISA: IgG in serial dilution preincubated with 2 nM biotinylated human Bv8, then put on plate coated with chimeric 2B9 IgG (the competitor); bound biotin-Bv8 read with streptavidin-HRP, in %
Protocol: NUNC™ 96-well Maxisorp immunoplates (NUNC; Roskilde, Denmark) were coated with chimeric 2B9 IgG at 1 μg/mL in PBS overnight and then blocked for an hour at room temperature with PBST buffer (0.5% BSA and 0.05% Tween 20 in PBS). Biotinylation of human Bv8 was prepared using EZ-link Sulfo-NHS-LC-Biotin (Catalog 21335; Pierce; Rockford, Ill.) reagent in a molar ratio of 1:4 (HuBv8: biotin).
To determine the amount of biotinylated human Bv8 in the competition assay, threefold serially diluted biotinylated human Bv8 from 100 nM to 0.04 nM were added to the antibody-coated plates for 15 minutes. Then, the plates were washed with PBT buffer (PBS and 0.05% Tween 20). Bound biotinylated were detected using streptavidin, which were conjugated with horseradish peroxidase (Catalog 21126; Pierce; Rockford, Ill.) and diluted 1:2500 in PBST buffer. […] The optical density was read spectrophotometrically at 450 nm.
To map the Bv8 antibody epitopes with chimeric 2B9, threefold serial dilutions of IgGs (chimeric 2B9, chimeric 3F1, chimeric 2D3, chimeric 2G9 and control IgG) were first incubated with 2 nM biotinylated human Bv8, determined by the above binding assay, in PBST buffer for 1-2 hours at room temperature, and then transferring it onto antibody (chimeric 2B9 IgG; 1 μg/mL)-coated plate for 15 min. […]

| Binder | fold tighter binding than chimeric 2G9 [1] | fold tighter binding than chimeric 2G9 [2] | kon [3] | kon [4] | kon [5] | kon [6] | Kd [7] | koff [7] | Kd [8] | koff [8] | Kd [9] | koff [9] | IC50 [10] | fold drop in binding affinity compared to h2G9.K4G1 [11] | IC50 (read off the curve) [12] | Kd [4] | koff [4] | Kd [6] | koff [6] | IC50 (read off the curve) [13] |
| --- | --- | --- | --- | --- | --- | --- | --- | --- | --- | --- | --- | --- | --- | --- | --- | --- | --- | --- | --- | --- |
| h2G9.K4G1.v55 IgG (antibody, V domains shown, Variable domains only; IgG, constant regions not described; claims 8 and 9); also called humanized 2G9 variant 55) VH: EVQLVQSGAEVKKPGASVKVSCKASGYSFTDYDMHWVRQAPGQGLEWIGYISSYSGATTYNQKFKGRVTITVDKSTSTAYLELSSLRSEDTAVYYCARDSNYGEAYAMDYWGQGTLVTVSS VL: DIVMTQSPDSLAVSLGERATINCKASQSLDYYHYSYMNWYQQKPGQPPKLLIYAASNRESGVPDRFSGSGSGTDFTLTISSLQAEDVAVYYCQQINEDPFTFGQGTKVEIKR | > 2 fold | ≥ 2 fold | 780000 M⁻¹ s⁻¹ | 775000 M⁻¹ s⁻¹ | 950000 M⁻¹ s⁻¹ | 945000 M⁻¹ s⁻¹ | < 6 pM | < 5e-06 s⁻¹ | ≤ 5 pM | ≤ 5e-06 s⁻¹ | ≤ 5 pM | ≤ 5e-06 s⁻¹ | 13 pM | – | – | – | – | – | – | – |
| h2G9.K4G1 variant CDR-H3 D95E (Fab, V domains shown) VH: EVQLVQSGAEVKKPGASVKVSCKASGYSFTDYDMHWVRQAPGQGLEWIGYISCYNGATTYNQKFKGRVTITVDKSTSTAYLELSSLRSEDTAVYYCAREGNYGEAYAMDYWGQGTLVTVSS VL: DIVMTQSPDSLAVSLGERATINCKASQSVDYDGDSYMNWYQQKPGQPPKLLIYAASNLESGVPDRFSGSGSGTDFTLTISSLQAEDVAVYYCQQINEDPFTFGQGTKVEIK | – | – | – | – | – | – | – | – | – | – | – | – | – | 100 fold | ~4000 pM | – | – | – | – | – |
| chimeric 2G9 anti-Bv8 antibody (IgG) (antibody, V domains shown, also called chimeric 2G9 IgG) VH: EVQLQQSGPEVVKTGASVKISCKASGYSFTDYDMHWVKQSQGKSLEWIGYISCYNGATTYNQKFKGKATFTVDKSSTTAYMQFNSLTSEDSAVYYCARDGNYGEAYAMDYWGQGTSLTVSS VL: DIVLTQSPASLAVSLGQRATISCKASQSVDYDGDSYMNWYQQKPGQPPKLLIYAASNLESGIPARFSGSGSGTDFTLNIHPVEEEDAATYYCQQINEDPFTFGQGTKVEIK | – | – | – | 646000 M⁻¹ s⁻¹ | – | 758000 M⁻¹ s⁻¹ | – | – | – | – | – | – | 80 pM | – | – | 40 pM | 2.5e-05 s⁻¹ | 20 pM | 1.8e-05 s⁻¹ | ~1000 pM |
